Here are results for 1 substance from publication PMC12243203.

This experiment concerns the target recombinant His-EtSERPIN1 protein (Eimeria tenella).

“recombinant His-tag GgANXA2 protein (from UniProt P17785 1-339) (natural protein)”: the adhesion rate to DF-1 cells of yeast cells displaying EtSERPIN1 that were pre-incubated with recombinant GgANXA2 protein (PBS group: 26.75%) was 44.3%.
